According to the DeepSol protein solubility set:

Experiment: soluble on expression in E. coli; label from the status in PepcDB or PDB records

Soluble on expression in E. coli, not soluble:
MGSDKIHHHHHHMPGRAGGCTRNTGAPVNRQDRAHAFLQRALEAQAALPVDHGLMRDLFAGTGDDSRLSLSEVGELVSRDPSLAVRILSLANSAYYGLQAEVTTVGRAVTVLGMREVRNLVLALGFSSVARMHPLPDRFCTAGYWLHQLRVAAFCRIIAAGTEDLDPEMLYTAGLLHDIGKLFIAALAPDDWLGIRRLARQESLPDCKAEERWWGLDHALAGARVLAYWQLPAALTEPISWHHGPHFADAAHARGAGAVQLADALLLAFERGTPPPAAALQLLKEYTADAGRLQMALEAQFAGERIGQLAALLG
MGSDKIHHHHHHMPHSLHPLFQAIATAPTEQTLRLTVMDNISEYFGVQRWGIYLLDTNNNLASVEAKGVSDTFIEQYQRFGKAVDPVLKYVLENHAPAHEELVLPEGTWKQSELYQRCCSTHDHEHIMTGPLVGQGQLIGTINFARIGHIPAFNHLELASLGAVCTHFSARLAELRKPHSVSGQISNRLTSREIQIANLVAKGLTNAEIGAELWITHNSVKQALKRIFRKLEVSARTEMVAKLRDII
MGSDKIHHHHHHMPIDTVGEQISLGKTSNEQANHIFLFLEVFKQEGGIQSYVKDIFRAYSGLSQGYQAEVLLLRDSPECSNPFTSNNLKFHYFQNPSPQIGRIKMAGVLLKFLLQRRPQMVFCGHIKLAVLVQTLCQPLGIPYTILTYGKEFWEPLKNQERRALAAAKEIWTISRYSRDRACAVNGIDPHKVKMLPCAIDGNKFTPGAKQPELIDKYGLTDAKVLMTVARLWSGDIYKGVDVTIRALPKIIQSFPEVKYLVIGRGDDQPRLAQLAQDLGVSDRVIFAGFVPTEQLMAHYRLADAYIMPSQEGFGIVYLEAMACGVPVLSGDDDGSADPLQDGKLGWRVPHRNPEAVAAACLEILQGDDQRCDGEWLREQAIALFGMDALQKQLLSLVHTQN
MGSDKIHHHHHHMPINIRRATINDIICMQNANLHNLPENYMMKYYMYHILSWPEASFVATTTTLDCEDSDEQDENDKLELTLDGTNDGRTIKLDPTYLAPGEKLVGYVLVKMNDDPDQQNEPPNGHITSLSVMRTYRRMGIAENLMRQALFALREVHQAEYVSLHVRQSNRAALHLYRDTLAFEVLSIEKSYYQDGEDAYAMKKVLKLEELQISNFTHRRLKENEEKLEDDLESDLLEDIIKQGVNDIIV
MGSDKIHHHHHHMPINSFENYPMNWKPKRPSKGQILYKALAEQLEQDINNGFLLPGTKLPPQRELADFLDVNVSTISRAFKICEKKGLISGVTGSGTFVSYDTRSNLFLMSSNNKITFIEMGTMNPDFTLEEMNTLFKHIIKEIDFKTIFQYGQRDGAKWQKEAIAKLIYKAGLETTSDSLLPASGGQNAIVAILAGLFQHGDRIGVDPLTYPGIKTAAKMLGIQLIPIKQEDNEISEEGLLYACKNENIKGLYIIPDYQNPTTHIMSQNGRKMIANIASKYNLIVIEDAIHSLLNETHLNPVASYLPNQTIYITSLSKIIAPSLRLAYISTPKQYREALSSALYNINLSQSYFLTEIAYRMITSGEADKLINARRKSARRRNKIINQYLSGYNLLGNEECIFRWLILPDGIMAEKFEIQALKEGVQVYASERFAVGKEKPISAIRIAVCATESTEELKAGLSVLKRLLEEKK
MGSDKIHHHHHHMPKNWTLKVDQYINANSNCIIATAHVDSFPTDLPLEPNIREPNLKSSTYKQIFDSLTTEPEKFFQRNNGIVLCVNKVKPKNRTELELEILQANEGGNDGVINGGHSVSAFEQARKFKYDLTLARVKVTIHIGLSEDEAKDIALASNTSAPVDARSKVNARGDYQFIKQFLAQLEREEDTKFRIAYYQNQSGAPKSPQCNVNHLIKLMNCLDRNKYNPNTNKSKGKHPPVSNNPSLTDAERERLSRLLPLLPKALWIEQRFFKTIEAYITNPKKKGVDLASIDARKNTLLPDSRYSFGFSAPADIAMPIVAAYRVFLDENYNWLIPFDDFAEDFLQHLWNNYYRKYLVSEKFSGNTVGSKICRNPVIWDSLYVSAQSYLNQQLLKMVSSSKNKREELKLAN
MGSDKIHHHHHHMPLDLDTALSSHQPLSLNERKLLDILRRRGAITRATVSAEMDLAQQSVHRLIEELISRGLLRSGERVKNGRGQPSPRIELVNEAVYAIGVSINTDSAVVCVADLGCNVLEQVTLRTPPLSRNSTLDSLAKTIERMLQRNGIETDRVIGMGFAIAGFFLENRQINAPEPLRDWSLIDLQPVLEERFGMPVWLENNATTAAIGESLVGVGAWASNFIYLSFNFGFGAGVVINGKPYFGSHGNAGEITLYNDEESINRPALRYLLEELHQKGVQVDSIEDLRLRFDPNWPGVDTWLKRIQPTLDRLVNALAGLFDPQAVVFGGQLPAELGKRLIAATTFWGTHRYNSPPPRPRLLLSETNGDAAAIGAALVPLKERFFV
MGSDKIHHHHHHMPNIDTFVPEKIQIGISSCLLGNQVRFDGGHKNSYYCRQEIEPFFEYTTVCPEMAIGMGTPRKSIRQIRDGDVVHIRSADGTLDVTDKLNEYSQAKVEELDYLGGYILCAKSPTCGMERVTEYKIGTNNGSKTGVGVFAKKLMERYPLLPVEEEGRLHDLPLRENFFTRVFAYNDWKQMTQSGLTKHKLMQFHSRYKYLLMAHSPKWYRDLGPILADIQDVEQTAQQYFEGFMTALKIIATRKNHTSTLQHIQGYFKKQLTAEQKEELSESILKYRQGLLPLLVPITLINHYVREFHTPYIQDQVYLNPHPEALKLRYAY
MGSDKIHHHHHHMPNIIIIERDINYLKIFIKCMKESGFEVVCMNNTKLVSQVAQKQLPDLIICSLEIAKQNNCNFWNNLCQNFVTATIPLIFLINEASEIYQCPEFAADGYITKFCTTEELNKAIKAQLAKQAARKHGYAIQSQQVLNSPSIGNDQPNVQSILPSIPRLNLVFEFIAANYDKPISLCDVAEALGYSATYLTTVVTQTTGKSLQKWIIECRITAAQILLLQTDQSVNQIALKVGYENLAHFYRQFRDYHGTSPQVWREVEKSHNSHQLNKDKASLNSNNFGDFQ
MGSDKIHHHHHHMPNKDIDDLVRFLKDKQISTITKKYHSYLTFHGLKAANVFILKEGIIKTSVILQDGREFNISYINQPDVISLLHDEALQYDEQPFNVRIESETATFYQVNRVEFWQYVNAKSELQNYVKQYYRHRLSETFARIQRLTMNGKMGALANFLHDIAEKFGRDLPDEAGVLIDFNVTNEDIAGFCGIANQTSVSRMMRKLKLEDIIDFGMSNDGKRRIIITNMKKLDDYIAY
MGSDKIHHHHHHMPPLDLTHIRQHHTVAELIALGKARRQVTPFEKLGTFTPVKRNASDYLKHVREMLVPELLPLRRERMSASAFAFFRGSVELMDYDLDYQSSTEIPAVVCGDAHIGNFGFYASPERRLVFDLNDFDEAGVHPWEWDLRRLLVSVLLAARDSNFKPKKVEKLIQAASASYREALKRMFDQTTLDRFYRDNEVQAVLNFGGAPEDTADLIASLVKKAQKRNSEQVVRKFTVTNSRGERQFKENAPRSVHIDRQTYQGLKAGISEYLLNVRTDVALLLSQYEVTDIIRHSVGVGSFGSLCYLVLLTSTDGSHMVLQIKEALPTRKVGSQSRPALTAAMELTEGQRIVSSQRILQATSDAFLGYFQMENKSFYVRQFRDMKESIDIPTLDWGQFQAYANTCAMILAKAHAQSPTAAMIRGYVGNSAKFDEAMAKWATAYVEQVDNDYQDFLDV
MGSDKIHHHHHHMPPLPVLNRPQIHTSVTEISHAIDRTIKEELFPVAYTTEEEQYFKTNPKPAYIDELIKDAKEFIDLQYSLKRNKIVLITSGGTTVPLENNTVRFIDNFSAGTRGASSAEQFLANGYSVIFLHREFSLTPYNRSFSHSINTLFLDYIDSEGKIKPEFAENVLKNKKLYDKYMEKEEKLLLLPFTTVNQYLWSLKSIAKLLNNSGCLFYLAAAVSDFFVPYSRLPQHKIQSGDNGKMGANNDTEGTTRTTPDGKLIVNLDPVPKFLRRLVESWATQAMIVSFKLETDESMLLYKCTQALDRYNHQLVIGNLLQTRNKQVIFVSPENRKGDWVRLDEKHHIIEEMIIPEVIARHDKWVAHSKTKLATK
MGSDKIHHHHHHMPPRKKAAIASTGIAGLDEILRGGLPLPNLFMLQGAPGSGKTTAAIQFLRAGVEAGESCLYVTLSQSAAELRSIAVSHGWTLDGIHVEELSTTGSIDEADEQSIFMTADLRLDETRKAIEAAIDEHKPQRLVYDSLLEIRLITGDSPRFRRELIGFKSFLSKRKVVALLLDTQSPGLDRSGEEVEGLAHGVIRFDKSLEEYGGVRRRIEVSKMRGVPIADGYHDMAIREGAGVVVFPRIMPSTATEATKPQLIKSGVSELDDMFGGGQEAGTTTLVIGQAGTGKSTMSSLYATAALERGESVALFLFEERLETFFRRSEGLGMQLRQFHKDGKLILRDFNPNEVSPGEFGQIVQDAVVQNKVRVVVIDSLTGYLNSLPHREKAVRDIQSLLKYLARSGVLTMLIVAQHGLLGQNVGIDVDVSFLGDTVLLLRIMEHEGRLRRSITVVKKRHGPHDLDVRELLIESGSVSVVSYNPLPDPK
MGSDKIHHHHHHMPQIGYQWLSSKCGVVPVHPFAVQSEIGRARSTSTDGDIRREIYPEPYRPTASLTDNLTFAFRHEGIHLEFLARLYALPSVRKELEAWIAREPTGAYARRACFFYEWLMPAPLDAPGVSKGNYVDALNPEEFVVGASINNTRWRVRDNLPGNRDFCPVIRRVEAVQRAETYDLAAPLAELEADYGIDLILRSAVWLTVKESRASFLIEHEQDNEDRIRRFAAVMESECGQHANPFDAGTLNVLQRGILGQSALRYGIRRSPVYVGHVARYQPVVDYIAPPWQHIEVMLAGLTRFLERTAGRAPLVRAAAASFGFVYAHPMADGNGRISRFLINDILRRDGAVPAPIILPVSATITHSTRDRAAYDKVLERFSRPLMKHYADQYTFGKTEIAEDGVEYNLHFHAYEDALPAWRYPDLTAHVGYLADVIDATLAHEMRTEARFLQANDKARRAIKDFLEAPDNDLDGIIRSVRQNGNSISNNLRKRYPLLDERPELGAQIVEAVAEAFADDKSH
MGSDKIHHHHHHMPQRIDLRVRPEEATDEQILRKHVARQTKTDPTDIHTIIIRRRSIDARQRQVYVNLGLEVYSGSESPVEDDFSDLIYPSVEGKTAVIVVGAGPAGLFAALRLIELGLRPIILERGKSVHERRADIARIPKEGHVDPESNYGFGEGGAGAFSDGKLYTRSKKRGDITKILRILCKHGAQPSILIDAHPHIGTDRLPKVIENIRHQILAAGGEVHFSCRMESLIIHNGQVVGARDNKGREYCGPVILATGHSARDIYRYLHRNGIRMEAKGTAVGVRLEHPQALIDQLRYHNPKGRGLYLPPAEYTYTAQVEGRGVYSFCMCPGGFVVPASTAPDQTVVNGMSPANRGSRWANSGLVVEIHPEDVLSTPTNDPLALMNWIERLEGESWTQARCSLRAPAQRMTDFLSGRSSVDLPKSSYNMGLTPSRLDEWLPSFITKRIQKAFQLFDRQTKGFLTAEAQLIALESRTSSPVRILRESTSCEHPLLRGLFPCGEGAGYAGGIVSAAMDGERCAEGVASYLG
MGSDKIHHHHHHMPRHVSNLELHNQIQEAALQSHLVPLGSIQLTPHFIPVEGLRRSIQRALKNCQPQDFLYCNKQGHEQLRKALSDHWREDGIYIAPEDIFITNGCMPALSLVIQKLTEVGDSILIPTPTYNGHLQLLASLKRQIVEIPADHRGIDLERLESLMQQGLAKVCLMTANYQNPLGYCFSNAEKQKIAELAAEYQCFIIEDDIFGECGYSSERPLPIRYWDREGYVVWCGSVSKSLSSAYRVGWFCLTTKLEHLKLELLVSNIGVNTPLQLGLADFIYSRGYREHLEQLRPNLMRQVEEYRSCILRAFEGIPIALSQPEGGYALWIQLPKSVDSLALYYTAQAQGITVVPGYVFGEDERYRHFIRLNAGHELTADVRQAIMSLADWSRQQMQTVS
